{"source": "patent US20030229207A1", "about": "(published 2003)", "molecules": {"B1": {"name": "he3 Fab (Fab, V domains shown)", "VH": "EIQLVQSGGGLVKPGGSVRISCAASGYTFTNYGMNWVRQAPGKGLEWMGWINTHTGEPTYADSFKGRFTFSLDDSKNTAYLQINSLRAEDTAVYFCTRRGYDWYFDVWGQGTTVTVSS", "VL": "DIQMTQSPSSLSASVGDRVTITCRASQDINSYLSWFQQKPGKAPKTLIYRANRLESGVPSRFSGSGSGTDYTLTISSLQYEDFGIYYCQQYDESPWTFGGGTKLEIK", "notes": "Fab (he3 kappa and Fd) expressed in E. coli E104 from pING4628; also called Moderate-Risk Fab"}, "B2": {"name": "chimeric H65 IgG (antibody, V domains shown)", "VH": "QIQLVQSGPELKKPGETVKISCKASGYTFTNYGMNWVKQAPGKGLRWMGWINTHTGEPTYADDFKGRFAFSLETSASTAYLQINNLKNEDTATYFCTRRGYDWYFDVWGAGTTVTVSS", "VL": "DIKMTQSPSSMYASLGERVTITCKASQDINSYLSWFQQKPGKSPKTLIYRANRLVDGVPSRFSGSGSGQDYSLTISSLDYEDMGIYYCQQYDESPWTFGGGTKLEIK", "notes": "Light and heavy chain each consist of unmodified mouse V/J-segments fused to a human C-segment (human kappa / human gamma by the ELISA used); also called purified cH65 IgG"}, "B3": {"name": "low risk humanized H65 (he1) IgG (antibody, V domains shown)", "VH": "B1 VH with E1Q, G9P, V12K, R38K, E46R, S63D, D74T, N77S, V93T", "VL": "B1 VL with L11M, V15L, A43S, E55V, S56D", "notes": "Whole IgG with human constant regions (detected with anti-human kappa and anti-human gamma), expressed transiently in CHO-K1; also called he1 H65 antibody; hH65"}, "B4": {"name": "chimeric H65 Fab (Fab, V domains shown)", "VH": "B2 VH", "VL": "B2 VL", "notes": "Fab of the chimeric H65 antibody; also called Chimeric Fab"}, "B5": {"name": "low-risk he1 Fab (Fab, V domains shown)", "VH": "B1 VH with E1Q, G9P, V12K, R38K, E46R, S63D, D74T, N77S, V93T", "VL": "B1 VL with L11M, V15L, A43S, E55V, S56D", "notes": "also called hel Fab; Low-Risk Fab"}}, "key": {"[1]": {"biological_target": "rat CD5 antigen present on rat T cells (rat) (UniProt P51882)", "sequence (P51882 24-491)": "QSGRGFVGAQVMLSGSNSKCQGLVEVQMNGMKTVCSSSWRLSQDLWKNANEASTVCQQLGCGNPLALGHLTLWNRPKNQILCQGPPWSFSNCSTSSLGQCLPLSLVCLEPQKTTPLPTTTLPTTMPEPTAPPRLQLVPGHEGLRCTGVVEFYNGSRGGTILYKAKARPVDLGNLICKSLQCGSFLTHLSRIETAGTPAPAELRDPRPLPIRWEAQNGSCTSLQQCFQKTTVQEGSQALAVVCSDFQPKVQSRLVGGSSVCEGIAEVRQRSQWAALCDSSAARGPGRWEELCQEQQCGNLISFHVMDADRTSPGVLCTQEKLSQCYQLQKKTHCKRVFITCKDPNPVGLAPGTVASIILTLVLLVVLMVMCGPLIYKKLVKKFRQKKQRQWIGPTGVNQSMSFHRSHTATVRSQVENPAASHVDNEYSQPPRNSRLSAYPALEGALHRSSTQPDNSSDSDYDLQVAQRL", "experiment": "flow cytometry, rat blood cells 3 h after 0.5 mg/kg i.v."}, "[2]": {"biological_target": "rat CD5 antigen present on rat T cells (rat) (UniProt P51882)", "experiment": "flow cytometry, rat spleen cells 3 h after 0.5 mg/kg i.v."}, "[3]": {"biological_target": "rat CD5 antigen present on rat T cells (rat) (UniProt P51882)", "experiment": "flow cytometry, rat lymph node cells 3 h after 0.5 mg/kg i.v."}, "[4]": {"biological_target": "T1, human CD5 cell differentiation marker (human, UniProt P06127 25-495)", "T1 construct": "whole, on cells; Cell-surface CD5; also called CD5 antigen; gp67", "T1 sequence (looked up)": "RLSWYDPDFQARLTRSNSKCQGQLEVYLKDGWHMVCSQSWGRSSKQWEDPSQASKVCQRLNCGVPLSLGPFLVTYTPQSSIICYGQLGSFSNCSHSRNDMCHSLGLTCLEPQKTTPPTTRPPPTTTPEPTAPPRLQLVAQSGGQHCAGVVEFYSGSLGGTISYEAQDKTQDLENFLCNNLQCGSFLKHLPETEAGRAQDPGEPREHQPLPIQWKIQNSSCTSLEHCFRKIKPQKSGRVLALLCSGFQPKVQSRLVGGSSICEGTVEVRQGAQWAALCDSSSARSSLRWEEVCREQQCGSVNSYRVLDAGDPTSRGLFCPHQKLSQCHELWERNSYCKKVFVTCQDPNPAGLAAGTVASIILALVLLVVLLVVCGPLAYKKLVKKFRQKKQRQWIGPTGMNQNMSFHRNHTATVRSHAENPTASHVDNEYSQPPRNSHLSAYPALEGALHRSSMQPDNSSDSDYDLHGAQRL", "experiment": "competition with 0.1 nM ^125I-cH65 IgG on Molt-4M cells, fitted with MacLigand", "protocol": "Competitive binding was performed as follows: 100 μl of Molt-4M cells were washed two times in ice-cold DHB binding buffer (Dubellco's modified Eagle's medium (Gibco, 320-1965PJ), 1.0% BSA and 10 mM Hepes at pH 7.2.-7.4). Cells were resuspended in the same buffer, plated into 96 v-bottomed wells (Costar) at 3×10⁵ cells per well and pelleted at 4° C. by centrifugation for 5 min at 1,000 rpm using a Beckman JS 4.2 rotor; 50 μl of 2×-concentrated 0.1 nM ¹²⁵I-cH65 IgG in DHB was then added to each well and competed with 50 μl of 2×-concentrated cH65 IgG or humanized antibody in DHB at final antibody concentrations from 100 nM to 0.0017 nM. Humanized antibody was obtained from culture supernatants of Sp2/0 clone C1718 which expresses he3 IgG. The concentration of the antibody in the supernatants was established by ELISA using a chimeric antibody as a standard. The concentration of the antibody in the purified preparation was determined by […] to proceed at 4° C. for 5 hrs and was terminated by washing cells three times with 200 Al of DHB binding buffer by centrifugation for 5 min at 1,000 rpm. All buffers and operations were at 4° C. Radioactivity was determined by solubilizing cells in 100 μl of 1.0 M NaOH and counting in a Cobra II auto gamma counter (Packard). Data from binding experiments were analyzed by the weighted nonlinear least squares curve fitting program, MacLigand, a Macintosh version of the computer program “Ligand” from Munson, Analyt. Biochem., 107:220 (1980). Objective statistical criteria (F, test, extra sum squares principle) were used to evaluate goodness of fit and for discriminating between models. Nonspecific binding was treated as a parameter subject to error and was fitted simultaneously with other parameters."}, "[5]": {"biological_target": "T1, human CD5 cell differentiation marker", "experiment": "FACS-based competitive assay, experiment 1; reference mouse H65 = 100%"}, "[6]": {"biological_target": "T1, human CD5 cell differentiation marker", "experiment": "FACS-based competitive assay, experiment 2; reference mouse H65 = 100%"}, "[7]": {"biological_target": "T1, human CD5 cell differentiation marker", "experiment": "FACS-based competitive assay, experiment 3; reference mouse H65 = 100%"}, "[8]": {"biological_target": "T1, human CD5 cell differentiation marker", "experiment": "FACS-based competitive assay, mean of 3 experiments ± SD; reference mouse H65 = 100%"}}, "note": "Residue numbers refer to the chain shown, from its start."}
{"molecule": "OX19 MoAb (antibody)", "values": [{"measurement": "% of CD4 cells positive for surface-bound mouse IgG1 (CD4/mIgG1)", "setting": "[1]", "result": 96.2, "unit": "%"}, {"measurement": "% of CD8 cells positive for surface-bound mouse IgG1 (CD8/mIgG1)", "setting": "[1]", "result": 70.2, "unit": "%"}, {"measurement": "% of CD4 cells positive for surface-bound mouse IgG1 (CD4/mIgG1)", "setting": "[2]", "result": 84.8, "unit": "%"}, {"measurement": "% of CD8 cells positive for surface-bound mouse IgG1 (CD8/mIgG1)", "setting": "[2]", "result": 73.6, "unit": "%"}, {"measurement": "% of CD4 cells positive for surface-bound mouse IgG1 (CD4/mIgG1)", "setting": "[3]", "result": 96.2, "unit": "%"}, {"measurement": "% of CD8 cells positive for surface-bound mouse IgG1 (CD8/mIgG1)", "setting": "[3]", "result": 96.8, "unit": "%"}]}
{"molecule": "B1", "values": [{"measurement": "Kd", "setting": "[4]", "result": 2.2, "unit": "nM"}]}
{"molecule": "B2", "values": [{"measurement": "cH65 Affinity Relative to H65 (100%)", "setting": "[5]", "result": 113, "unit": "%"}, {"measurement": "cH65 Affinity Relative to H65 (100%)", "setting": "[6]", "result": 106, "unit": "%"}, {"measurement": "cH65 Affinity Relative to H65 (100%)", "setting": "[7]", "result": 96.3, "unit": "%"}, {"measurement": "Kd", "setting": "[4]", "result": 2.3, "unit": "nM"}, {"measurement": "cH65 Affinity Relative to H65 (100%)", "setting": "[8]", "result": 105, "unit": "%"}]}
{"molecule": "B3", "values": [{"measurement": "Kd", "setting": "[4]", "result": 2.1, "unit": "nM"}]}
{"molecule": "B4", "values": [{"measurement": "Kd", "setting": "[4]", "result": 18.4, "unit": "nM"}]}
{"molecule": "B5", "values": [{"measurement": "Kd", "setting": "[4]", "result": 14.3, "unit": "nM"}]}
